B1: AUP1 (parent)
chain: FCASTRLPPTPLLLFPEEEATNGR

Variants of: B1
Assay: protein stability index of a GFP-peptide fusion (GPS, HEK-293T) (PSI 1-6); higher = more stable
Conditions: c terminus: a fixed tail appended
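Also: lentivirally expressed fusions sorted by FACS into six bins by GFP to DsRed ratio, PSI derived from sequencing read proportions per bin multiplied by bin number.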

Row | Variant | protein stability index
1 | FCASTRLPPTPLLLFPEEHATNGR | 2.23
2 | FCASTCLPPTPLLLFPEEEATNGR | 2.7
3 | FCASTRLPPTPLLLFPEELATNGR | 2.19
4 | RCASTRLPPTPLLLFPEEEATNGR | 4.24
5 | FCASTRLPPTPLLFFPEEEATNGR | 2.14
6 | FCASTRLPPTPLLLLPEEEATNGR | 3.44
7 | FCASTRLPPTPLLLDPEEEATNGR | 3.62
8 | FCSSTRLPPTPLLLFPEEEATNGR | 2.44
9 | FCGSTRLPPTPLLLFPEEEATNGR | 2.36
10 | FCASTRLPPTPLLRFPEEEATNGR | 3.56
11 | FSASTRLPPTPLLLFPEEEATNGR | 3.8
12 | FCASDRLPPTPLLLFPEEEATNGR | 3.44
13 | FCASTRLPPTPLLLFPEEEATNGT | 3.24
14 | FCASTRLPWTPLLLFPEEEATNGR | 2.97
15 | FTASTRLPPTPLLLFPEEEATNGR | 3.42
16 | FCASTRLPRTPLLLFPEEEATNGR | 2.3
17 | FCASTRKPPTPLLLFPEEEATNGR | 2.89
18 | FCASTRLPPTGLLLFPEEEATNGR | 2.54
19 | FCADTRLPPTPLLLFPEEEATNGR | 3.6
20 | FCASTRLPPTPLLLRPEEEATNGR | 3.37
21 | FCASTRLPPTPLLLFPEEEATTGR | 3.27
22 | FCASTFLPPTPLLLFPEEEATNGR | 2.2
23 | FHASTRLPPTPLLLFPEEEATNGR | 2.17
24 | FCASTRLMPTPLLLFPEEEATNGR | 2.57

Row | Variant | protein stability index
25 | FCASTRLPPTPLWLFPEEEATNGR | 1.59
26 | FCASTRLPKTPLLLFPEEEATNGR | 2.67
27 | FCASTRLPPWPLLLFPEEEATNGR | 2.33
28 | FCWSTRLPPTPLLLFPEEEATNGR | 1.89
29 | FCASTRLPPTPLLLFPECEATNGR | 2.18
30 | FCASTRLPPTPLLLFPEEFATNGR | 1.73
31 | FCASTRLPPTPLLLFPEEEANNGR | 3.15
32 | FCASTRLPPTPLLLFPEEEATRGR | 2.73
33 | FCASTREPPTPLLLFPEEEATNGR | 3.24
34 | FCASTRLPPHPLLLFPEEEATNGR | 1.68
35 | FCASTRLPPMPLLLFPEEEATNGR | 2.28
36 | FCASTRLPPTPLLLFPEEEPTNGR | 2.75
37 | FCASTRLPPTPLLLFPEEEKTNGR | 2.93
38 | FCASTRLPPTPLLLFPEEENTNGR | 2.43
39 | FCASTRLPPTPLLLFGEEEATNGR | 2.69
40 | DCASTRLPPTPLLLFPEEEATNGR | 4.35
41 | FCASTRLPPTPLLLFPEEECTNGR | 2.38
42 | FCASTRLPPSPLLLFPEEEATNGR | 2.8
43 | FCASTRLPPTPLLLFPEEELTNGR | 2.72
44 | FCASTQLPPTPLLLFPEEEATNGR | 3.49
45 | FCASTRLPPTPLMLFPEEEATNGR | 3.15
46 | FCASTRLPPTPLLLFPEDEATNGR | 2.52
47 | FCASTRLPPTPLLWFPEEEATNGR | 1.38
48 | FCASTRLPPTPLLLVPEEEATNGR | 3.1

Row | Variant | protein stability index
49 | FCASTRLPPTPLLLFPENEATNGR | 2.37
50 | FCASTRLPPTPLLLFPEEEATNTR | 2.76
51 | FYASTRLPPTPLLLFPEEEATNGR | 3.31
52 | WCASTRLPPTPLLLFPEEEATNGR | 3.74
53 | FCASTRLPVTPLLLFPEEEATNGR | 2.62
54 | FCAVTRLPPTPLLLFPEEEATNGR | 3.08
55 | FCASTRLEPTPLLLFPEEEATNGR | 2.91
56 | FCASTRLPPTQLLLFPEEEATNGR | 2.58
57 | FCASTRLPPTPLLLFPCEEATNGR | 1.52
58 | FCASTRLPCTPLLLFPEEEATNGR | 2
59 | MCASTRLPPTPLLLFPEEEATNGR | 4.27
60 | FCASTRLPPTPELLFPEEEATNGR | 4.1
61 | FCASTRLPPTPLLLFPEERATNGR | 2.05
62 | FEASTRLPPTPLLLFPEEEATNGR | 4.91
63 | FCASTRLPPTWLLLFPEEEATNGR | 2.14
64 | FCASTRLPPTPLLLFPEEEATNHR | 2.82
65 | FCASTRLPPTPLLLFPEEEALNGR | 2.37
66 | FCASTRLPPTPLLLFPEEEATYGR | 2.82
67 | PCASTRLPPTPLLLFPEEEATNGR | 4.53
68 | FCASCRLPPTPLLLFPEEEATNGR | 1.86
69 | FCASTRLPPTPLLLFPEEEATNGE | 3.4
70 | FCASTRLPPTPLLLEPEEEATNGR | 3.46
71 | FCASTRLPPFPLLLFPEEEATNGR | 1.32
72 | FCASTRLPPTPLLLFPEEEATEGR | 3.39

Row | Variant | protein stability index
73 | FCASTRLPPTPLLLFPEEEATIGR | 2.11
74 | FGASTRLPPTPLLLFPEEEATNGR | 4.33
75 | FCAFTRLPPTPLLLFPEEEATNGR | 2.54
76 | FCASTRLPPTPLLLFKEEEATNGR | 2.26
77 | FCASTRVPPTPLLLFPEEEATNGR | 3.31
78 | FCATTRLPPTPLLLFPEEEATNGR | 2.76
79 | FCASTRLPPTPLLLFPEEEACNGR | 3.05
80 | FCASTRLPPTPLLLFPEEEITNGR | 2.3
81 | CCASTRLPPTPLLLFPEEEATNGR | 2.6
82 | FCASTRLPPTPLLLFPEYEATNGR | 2.07
83 | FCASTRLPPTPLLLFPEEEATNFR | 2
84 | FCASTRLPPTPLLLFPEEEAQNGR | 2.46
85 | FCASTRLPPTPLLHFPEEEATNGR | 3.49
86 | FCRSTRLPPTPLLLFPEEEATNGR | 2.23
87 | GCASTRLPPTPLLLFPEEEATNGR | 4.27
88 | FCASTRLPPTPVLLFPEEEATNGR | 3.31
89 | FCASTRLPPTPLLLFPELEATNGR | 2.54
90 | FCASTRLPPTPLLLFPEEEATNGC | 2.72
91 | FCASTRLPPTPLLLFPEIEATNGR | 2.4
92 | FCASIRLPPTPLLLFPEEEATNGR | 2.22
93 | FCASTELPPTPLLLFPEEEATNGR | 4.11
94 | FCASTRLPPCPLLLFPEEEATNGR | 2.33
